Experimental data taken from patent US20140087995A1 (published 2014).
Numbered stars: 1 amine (or outer) side, 2 acyl side, 3 side chain; on linkers, the order of the positions; unused ones are H or OH. Bridge positions count the residues as written; N and C are the ends. Side chains are listed from the residue outwards. Ends that are not written are not given here. * marks the point of attachment. C20 diacid = O=C(O)CCCCCCCCCCCCCCCCCCC(=O)*; γGlu = O=C(O)[C@H](CCC(=O)[*:2])N[*:1]; C14 diacid = O=C(O)CCCCCCCCCCCCC(=O)*

Assays:
[1] = target: T1, human calcitonin receptor (human, UniProt P30988 25-474); assay: ratio of IC50 at hCTR over IC50 at hAmylin-R (SPA competition assays)
T1 construct: whole, on cells; Membranes of BHK cells stably transfected with the human calcitonin receptor (Assay VII); also called hCTR; hCT
T1 sequence (looked up): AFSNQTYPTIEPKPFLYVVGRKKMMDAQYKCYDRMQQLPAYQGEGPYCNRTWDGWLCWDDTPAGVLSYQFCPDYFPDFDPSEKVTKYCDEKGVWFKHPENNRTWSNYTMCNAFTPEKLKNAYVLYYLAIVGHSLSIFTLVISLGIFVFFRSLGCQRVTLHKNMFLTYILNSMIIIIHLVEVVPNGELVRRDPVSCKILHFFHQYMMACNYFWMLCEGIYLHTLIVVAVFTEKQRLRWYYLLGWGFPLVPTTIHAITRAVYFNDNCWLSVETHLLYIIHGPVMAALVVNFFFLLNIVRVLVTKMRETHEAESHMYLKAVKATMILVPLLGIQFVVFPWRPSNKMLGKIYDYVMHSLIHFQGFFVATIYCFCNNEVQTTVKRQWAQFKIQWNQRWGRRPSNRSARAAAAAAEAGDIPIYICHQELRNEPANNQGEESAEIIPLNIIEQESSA
Description: The resulting pellet was resuspended, homogenized and centrifuged (20.000 rpm, 15 min) in a buffer containing 20 mM Na-HEPES and 0.1 mM EDTA (pH 7.4, buffer 2). The resulting pellet was resuspended in buffer 2 and protein concentration was measured (BCA protein Assay, Pierce). The homogenate was kept cold during the whole procedure. The membranes were kept at −80° C. until use. The assay was performed in a 384 well Optiplate (PerkinElmer) in a total volume of 40 ul. Membranes were mixed with SPA beads. Final concentration of membranes 35 ng/μL final and SPA beads was 0.05 mg/well. Test-compounds were dissolved in DMSO and further diluted in assay buffer (50 mM Hepes, pH 7.4, 1 mM CaCl2, 5 mM MgCl₂, 0.1% OA and 0.02% Tween20). […] The final mixture was incubated with shaking at 400 rpm for 120 min at 25° C. prior to centrifugation (1500 rpm, 10 min). Samples were analyzed on TopCounter™ (Packard). The IC₅₀ was calculated using (one site binding competition analysis) GraphPad Prism5 as a measure of receptor affinity.
Membranes were prepared in the following way; the cells were rinsed with PBS and incubated with Versene for approximately 5 min before harvesting. The cells were flushed with PBS and the cell-suspension was centrifuged for 5 min at 1000 rpm. Cells were homogenized (Ultrathurrax) in a buffer containing 20 mM Na-HEPES and 10 mM EDTA (pH 7.4) and centrifuged at 20.000 rpm for 15 min. The resulting pellet was resuspended, homogenized and centrifuged (20.000 rpm, 15 min) in a buffer containing 20 mM Na-HEPES and 0.1 mM EDTA (pH 7.4, buffer 2). The resulting pellet was resuspended in buffer 2 and protein concentration was measured (BCA protein Assay, Pierce). The homogenate was kept cold during the whole procedure. The membranes were kept at −80° C. until use. Assay was performed in a 384 well Optiplate (PerkinElmer) in a total volume of 40 ul. Membranes were mixed with SPA beads.

[2] = target: T1, human calcitonin receptor; assay: SPA competition against 125I-calcitonin, membranes of BHK cells with human calcitonin receptor (Assay VII)
Description: Membranes were prepared in the following way; the cells were rinsed with PBS and incubated with Versene for approximately 5 min before harvesting. The cells were flushed with PBS and the cell-suspension was centrifuged for 5 min at 1000 rpm. Cells were homogenized (Ultrathurrax) in a buffer containing 20 mM Na-HEPES and 10 mM EDTA (pH 7.4) and centrifuged at 20.000 rpm for 15 min. The resulting pellet was resuspended, homogenized and centrifuged (20.000 rpm, 15 min) in a buffer containing 20 mM Na-HEPES and 0.1 mM EDTA (pH 7.4, buffer 2). The resulting pellet was resuspended in buffer 2 and protein concentration was measured (BCA protein Assay, Pierce). The homogenate was kept cold during the whole procedure. The membranes were kept at −80° C. until use. Assay was performed in a 384 well Optiplate (PerkinElmer) in a total volume of 40 ul. Membranes were mixed with SPA beads. Final concentration of membranes 35 ng/μL final and Final concentration of SPA beads was 0.05 mg/well. Test-compounds were dissolved in DMSO and further diluted in assay buffer (50 mM Hepes, pH 7.4, 1 mM CaCl2, 5 mM MgCl₂, 0.1% OA and 0.02% Tween20). […] The final mixture was incubated for 120 min with shaking at 400 rpm at 25° C. prior to centrifugation (1500 rpm, 10 min). Samples were analyzed on TopCounter™ (Packard). The […] was calculated using (one site binding competition analysis) GraphPad Prism5 as a measure of receptor affinity.

B1: N^ε1-[(4S)-4-carboxy-4-[[(4S)-4-carboxy-4-(19-carboxynonadecanoylamino)butanoyl]amino]butanoyl]-[Glu14,Arg17,Pro21,Pro27,Pro34,Glu35]-h-amylin (peptide)
peptide: K([γGlu-γGlu-C20 diacid])CNTATCATQRLAEFLRHSSPNFGAIPSSTNVGPETY-NH2
modifications: disulfide 2-7; N-terminus assumed
SMILES: CC[C@H](C)[C@H](NC(=O)[C@H](C)NC(=O)CNC(=O)[C@H](Cc1ccccc1)NC(=O)[C@H](CC(N)=O)NC(=O)[C@@H]1CCCN1C(=O)[C@H](CO)NC(=O)[C@H](CO)NC(=O)[C@H](Cc1c[nH]cn1)NC(=O)[C@H](CCCNC(=N)N)NC(=O)[C@H](CC(C)C)NC(=O)[C@H](Cc1ccccc1)NC(=O)[C@H](CCC(=O)O)NC(=O)[C@H](C)NC(=O)[C@H](CC(C)C)NC(=O)[C@H](CCCNC(=N)N)NC(=O)[C@H](CCC(N)=O)NC(=O)[C@@H](NC(=O)[C@H](C)NC(=O)[C@@H]1CSSC[C@H](NC(=O)[C@@H](N)CCCCNC(=O)CC[C@H](NC(=O)CC[C@H](NC(=O)CCCCCCCCCCCCCCCCCCC(=O)O)C(=O)O)C(=O)O)C(=O)N[C@@H](CC(N)=O)C(=O)N[C@@H]([C@@H](C)O)C(=O)N[C@@H](C)C(=O)N[C@@H]([C@@H](C)O)C(=O)N1)[C@@H](C)O)C(=O)N1CCC[C@H]1C(=O)N[C@@H](CO)C(=O)N[C@@H](CO)C(=O)N[C@H](C(=O)N[C@@H](CC(N)=O)C(=O)N[C@H](C(=O)NCC(=O)N1CCC[C@H]1C(=O)N[C@@H](CCC(=O)O)C(=O)N[C@H](C(=O)N[C@@H](Cc1ccc(O)cc1)C(N)=O)[C@@H](C)O)C(C)C)[C@@H](C)O
- Ratio hCT/hAmylin binding [1]: 17.6
- IC50 [2]: 2.13 nM

B2: N^ε1-[(4S)-4-carboxy-4-(13-carboxytridecanoylamino)butanoyl]-[Arg17,Pro21,Pro27,His34]-h-amylin (peptide)
peptide: K([γGlu-C14 diacid])CNTATCATQRLANFLRHSSPNFGAIPSSTNVGHNTY-NH2
modifications: disulfide 2-7; N-terminus assumed
SMILES: CC[C@H](C)[C@H](NC(=O)[C@H](C)NC(=O)CNC(=O)[C@H](Cc1ccccc1)NC(=O)[C@H](CC(N)=O)NC(=O)[C@@H]1CCCN1C(=O)[C@H](CO)NC(=O)[C@H](CO)NC(=O)[C@H](Cc1c[nH]cn1)NC(=O)[C@H](CCCNC(=N)N)NC(=O)[C@H](CC(C)C)NC(=O)[C@H](Cc1ccccc1)NC(=O)[C@H](CC(N)=O)NC(=O)[C@H](C)NC(=O)[C@H](CC(C)C)NC(=O)[C@H](CCCNC(=N)N)NC(=O)[C@H](CCC(N)=O)NC(=O)[C@@H](NC(=O)[C@H](C)NC(=O)[C@@H]1CSSC[C@H](NC(=O)[C@@H](N)CCCCNC(=O)CC[C@H](NC(=O)CCCCCCCCCCCCC(=O)O)C(=O)O)C(=O)N[C@@H](CC(N)=O)C(=O)N[C@@H]([C@@H](C)O)C(=O)N[C@@H](C)C(=O)N[C@@H]([C@@H](C)O)C(=O)N1)[C@@H](C)O)C(=O)N1CCC[C@H]1C(=O)N[C@@H](CO)C(=O)N[C@@H](CO)C(=O)N[C@H](C(=O)N[C@@H](CC(N)=O)C(=O)N[C@H](C(=O)NCC(=O)N[C@@H](Cc1c[nH]cn1)C(=O)N[C@@H](CC(N)=O)C(=O)N[C@H](C(=O)N[C@@H](Cc1ccc(O)cc1)C(N)=O)[C@@H](C)O)C(C)C)[C@@H](C)O
- Ratio hCT/hAmylin binding [1]: 23.5
- IC50 [2]: 24.3 nM
